According to patent publication US20150183880A1:

Experiments:
[1] = target: IGF-1R and EGP-1 together on cancer cell lines (MCF-7, DU-145, ME-180); experiment: flow cytometry (FACScan), MCF-7 cells; structural control
[2] = target: recombinant human IGF-1R (R&D Systems, Catalog #391-GR), extracellular domain (human) (UniProt P08069); experiment: rhIGF-1R-coated beads; competitor unlabeled MAB391
[3] = target: recombinant human IGF-1R (R&D Systems, Catalog #391-GR), extracellular domain (human) (UniProt P08069); experiment: rhIGF-1R-coated beads; competitor unlabeled 17-69
[4] = target: recombinant human IGF-1R (R&D Systems, Catalog #391-GR), extracellular domain (human) (UniProt P08069); experiment: rhIGF-1R-coated beads; competitor unlabeled 3B7
[5] = target: recombinant human IGF-1R (R&D Systems, Catalog #391-GR), extracellular domain (human) (UniProt P08069); experiment: rhIGF-1R-coated beads; competitor unlabeled 1-2
[6] = target: recombinant human IGF-1R (R&D Systems, Catalog #391-GR), extracellular domain (human) (UniProt P08069); experiment: rhIGF-1R-coated beads; competitor unlabeled hR1
[7] = target: recombinant human IGF-1R (R&D Systems, Catalog #391-GR), extracellular domain (human) (UniProt P08069); experiment: rhIGF-1R-coated beads; competitor unlabeled R1
[8] = target: recombinant human IGF-1R (R&D Systems, Catalog #391-GR), extracellular domain (human) (UniProt P08069); experiment: rhIGF-1R-coated beads; competitor unlabeled αIR-3
[9] = target: recombinant human IGF-1R (R&D Systems, Catalog #391-GR), extracellular domain (human) (UniProt P08069); experiment: rhIGF-1R-coated beads; competitor unlabeled 24-57
[10] = target: recombinant human IGF-1R (R&D Systems, Catalog #391-GR), extracellular domain (human) (UniProt P08069); experiment: rhIGF-1R-coated beads; competitor unlabeled cR1
[11] = target: recombinant human IGF-1R (R&D Systems, Catalog #391-GR), extracellular domain (human) (UniProt P08069); experiment: rhIGF-1R-coated beads; competitor unlabeled 24-31
[12] = target: recombinant human IGF-1R (R&D Systems, Catalog #391-GR), extracellular domain (human) (UniProt P08069); experiment: rhIGF-1R-coated beads; competitor unlabeled 24-60
[13] = target: recombinant human IGF-1R (R&D Systems, Catalog #391-GR), extracellular domain (human) (UniProt P08069); experiment: rhIGF-1R-coated beads; competitor unlabeled 2C8
[14] = target: recombinant human IGF-1R (R&D Systems, Catalog #391-GR), extracellular domain (human) (UniProt P08069); experiment: rhIGF-1R-coated beads; competitor unlabeled 1H7
[15] = target: EGP-1 expressed on cancer cell lines (MCF-7, DU-145, ME-180) (UniProt P09758); experiment: flow cytometry (FACScan), ME-180 cells
[16] = target: EGP-1 expressed on cancer cell lines (MCF-7, DU-145, ME-180) (UniProt P09758); experiment: flow cytometry (FACScan), DU145 cells
[17] = target: EGP-1 expressed on cancer cell lines (MCF-7, DU-145, ME-180) (UniProt P09758); experiment: flow cytometry (FACScan), MCF-7 cells
[18] = target: IGF-1R expressed on cancer cell lines (MCF-7, MCF-7L, CaPan1, DU-145, ME-180, Hep G2, HT-29, LNCaP) (human) (UniProt P08069); experiment: 125I-IGF-1 binding to MCF-7L cells with antibody at 1000 ng/mL
[19] = target: IGF-1R expressed on cancer cell lines (MCF-7, MCF-7L, CaPan1, DU-145, ME-180, Hep G2, HT-29, LNCaP) (human) (UniProt P08069); experiment: 125I-IGF-1 binding to MCF-7L cells with antibody at 10 ng/mL
[20] = target: IGF-1R expressed on cancer cell lines (MCF-7, MCF-7L, CaPan1, DU-145, ME-180, Hep G2, HT-29, LNCaP) (human) (UniProt P08069); experiment: 125I-IGF-1 binding to MCF-7L cells with antibody at 0 ng/mL (baseline)
[21] = target: IGF-1R expressed on cancer cell lines (MCF-7, MCF-7L, CaPan1, DU-145, ME-180, Hep G2, HT-29, LNCaP) (human) (UniProt P08069); experiment: 125I-IGF-1 binding to MCF-7L cells with antibody at 100 ng/mL
[22] = target: IGF-1R and EGP-1 together on cancer cell lines (MCF-7, DU-145, ME-180); experiment: flow cytometry (FACScan), MCF-7 cells; control

Chain of EGP-1 expressed on cancer cell lines (MCF-7, DU-145, ME-180) (P09758 27-323 limits assumed): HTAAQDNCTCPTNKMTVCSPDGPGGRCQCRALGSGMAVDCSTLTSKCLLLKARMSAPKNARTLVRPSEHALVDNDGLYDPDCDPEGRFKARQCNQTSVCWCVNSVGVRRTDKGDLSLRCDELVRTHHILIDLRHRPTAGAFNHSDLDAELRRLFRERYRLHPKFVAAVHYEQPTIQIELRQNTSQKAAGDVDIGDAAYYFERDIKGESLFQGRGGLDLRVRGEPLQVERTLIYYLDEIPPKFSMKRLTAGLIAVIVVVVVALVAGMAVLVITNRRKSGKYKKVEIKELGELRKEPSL

Row | Substance | % binding [2] [%] | % binding [3] [%] | % binding [4] [%] | % binding [5] [%] | % binding [6] [%] | % binding [7] [%] | % binding [8] [%] | % binding [9] [%] | % binding [10] [%] | % binding [11] [%] | % binding [12] [%] | % binding [13] [%] | % binding [14] [%] | further results
1 | 22-20 (bispecific hexavalent DNL construct: hLL2 IgG-AD2 with four hA20 Fab-DDD2) (bispecific antibody) | – | – | – | – | – | – | – | – | – | – | – | – | – | % Positive [1]: 3.1%; MFI [1]: 2.11
2 | 24-60 (commercial anti-IGF-1R mAb) (antibody) | 0 | 82 | 79 | 100 | 0 | 0 | 21 | 88 | 0 | 18 | 0 | 88 | 100 | –
3 | Hex-hRS7 (monospecific hexavalent DNL construct of hRS7, anti-EGP-1) | – | – | – | – | – | – | – | – | – | – | – | – | – | % Positive [15]: 100%; MFI [15]: 59.6; % Positive [16]: 93.7%; MFI [16]: 17; % Positive [17]: 99.9%; MFI [17]: 35.7
4 | human IgG (control) (antibody) | – | – | – | – | – | – | – | – | – | – | – | – | – | % Positive [22]: 2.34%; MFI [22]: 1.84

More lines, main results first:

Row | % binding [2] [%] | % binding [3] [%] | % binding [4] [%] | % binding [5] [%] | % binding [6] [%] | % binding [7] [%] | % binding [8] [%] | % binding [9] [%] | % binding [10] [%] | % binding [11] [%] | % binding [12] [%] | % binding [13] [%] | % binding [14] [%] | Substance | further results
5 | 0 | – | – | – | – | 40 | – | – | – | – | – | – | – | MAB391 (commercial mouse anti-IGF-1R monoclonal antibody, R&D clone 33255.111) | % binding of 125I-IGF-1 [18]: 38%; % binding of 125I-IGF-1 [19]: 95%; % binding of 125I-IGF-1 [20]: 100%; % binding of 125I-IGF-1 [21]: 54%
6 | 0 | 89 | 76 | 95 | 107 | 86 | 0 | 87 | 97 | 52 | 0 | 97 | 115 | αIR-3 (commercial anti-IGF-1R mAb) (antibody) | –
